This note sets out measurements from paper PMC2950884 (Nature structural & molecular biology, 2010).

For data set [1], the target named is Pcf11 CTD-interacting domain (S. cerevisiae) (UniProt P39081). Briefly: NMR titration.
The target in data set [2] is Rtt103 CTD-interacting domain (residues 1-131) (S. cerevisiae) (UniProt Q05543). As to the kind of experiment: NMR titration.
The target of data set [3] is Pcf11-CID (N107R) (S. cerevisiae) (UniProt P39081). As to the kind of experiment: NMR titration.
In data set [4] the target is four heptad repeat Ser2P CTD peptide. As to the kind of experiment: NMR relaxation.
Data set [5] has as its target Ser2abP-CTD diheptad repeat peptide (phosphorylated at both Ser2 positions). Briefly: fluorescence polarisation.
In data set [6] the target is Ser2abP/Ser5abP-CTD diheptad repeat peptide. Briefly: fluorescence polarisation.
Data set [7] concerns the target Ser5abP-CTD diheptad repeat peptide. Briefly: fluorescence polarisation.
In data set [8] the target is four heptad repeat Ser2P CTD peptide. Briefly: fluorescence polarisation.
For data set [9], the system named is PMA1 gene. As to the kind of experiment: ChIP of TAP tagged proteins, 3′-end recruitment. Type of data set: cell-based, yeast.
The test system of data set [10] is ADH1 gene. As to the kind of experiment: ChIP of TAP tagged proteins, 3′-end recruitment. Type of data set: cell-based, yeast.
Data set [11] concerns the molecule itself. Briefly: AUC.
[12] abbreviates: untagged wild-type Pcf11 present.

Residue numbers refer to the chain shown, from its start. Numbers in names are those of the source. Where only a bound is given, the exact number is not on record here.

For Ser2aP-CTD diheptad repeat peptide, the Kd in data set [1] was 1400 µM; in data set [2], 420 µM.
As to “Ser2abP-CTD diheptad repeat peptide (phosphorylated at both Ser2 positions)”, the figures for the Kd in data set [1], in [3] and in data set [2] were 160 µM, 24 µM and 15 µM, respectively.
For the molecule “Ser2abP/Ser5abP-CTD diheptad repeat peptide”, the Kd in [1] was found to be 630 µM; in data set [2] it was 41 µM.
Ser5abP-CTD diheptad repeat peptide gave a Kd in [1] of 1200 µM.
On to Ser2bP-CTD diheptad repeat peptide, for which the Kd in data set [1] came to 240 µM; in data set [2], 76 µM.

B1: Rtt103 CTD-interacting domain (residues 1-131) (domain or fragment)
chain: MPFSSEQFTTKLNTLEDSQESISSASKWLLLQYRDAPKVAEMWKEYMLRPSVNTRRKLLGLYLMNHVVQQAKGQKIIQFQDSFGKVAAEVLGRINQEFPRDLKKKLSRVVNILKERNIFSKQVVNDIERSL
Regarding B1, the stoichiometry N (proteins per peptide) in data set [4] is 2. The values for the Kd in [5], in data set [6] and in data set [7] were 2.1 µM, 53 µM and 122 µM, respectively. This molecule also registered a Kd1 (first binding event) in data set [8] of 3 µM. The same molecule yielded a Kd2 (second binding event) in [8] of 20 µM.

B2: Rtt103-CID (R108N) (domain or fragment)
chain: B1 chain with R108N
With B2, the “Reduction of 3′-end recruitment compared with wild type (factor)” value in data set [9] worked out at 8; in [10], 5. In data set [5], this molecule registered a Kd of 100 µM.

B3: Rtt103(E115R)-CID (domain or fragment)
chain: B1 chain with E115R
The molecule B3 returned a stoichiometry N (protein per peptide) in data set [4] of 1. In addition, in data set [8], the Kd1 (first binding event) was 1.8 µM and the Kd2 (second binding event) is above 1000 µM.

B4: Pcf11 CTD-interacting domain (domain or fragment, S. cerevisiae, UniProt P39081 4-139, looked up)
chain: DTEVIVKDFNSILEELTFNSRPIITTLTKLAEENISCAQYFVDAIESRIEKCMPKQKLYAFYALDSICKNVGSPYTIYFSRNLFNLYKRTYLLVDNTTRTKLINMFKLWLNPNDTGLPLFEGSALEKIEQFLIKAS
Consider B4, for which the “stoichiometry N” value in data set [11] came out at 2. For the same molecule, the values for the dissociation constant Kd in data set [5] and in data set [6] were 130 µM and 370 µM, respectively. The molecule further returned a Kd1 (first binding event) in [8] of 50 µM. Also, the Kd2 (second binding event) in [8] worked out at 140 µM.

B5: Pcf11-CID (N107R): Pcf11 with arginine in place of Asn107; CID in vitro, TAP tagged protein in ChIP (protein)
chain: B4 chain with N104R
For B5, the “Increase of 3′-end recruitment compared with wild type Pcf11-TAP (factor)” value in [9] (setting [12]) and in data set [10] (setting [12]) was above 2 each time.

B6: Pcf11(D117K)-CID (domain or fragment)
chain: B4 chain with D114K
In data set [8], B6 came in with a Kd1 (first binding event) of 30 µM and a Kd2 (second binding event) of 130 µM.

B7: Pcf11(D117A)-CID (domain or fragment)
chain: B4 chain with D114A
In data set [8], B7 had a Kd1 (first binding event) of 40 µM and a Kd2 (second binding event) of 430 µM.
